For this experiment, the target named is T1, APP770-YFP (human, UniProt P05067-1 18-770).
T1 construct: human amyloid precursor protein, the isoform named APP770; Plasmid was a gift (Prof. Goldstein, UCSD); the construct is not described further; also called APP-YFP; source: HEK293, transfected (APP770-YFP pcDNA3.1), in lysate or in living cells
In words: FRET or BRET; FRET acceptor bleaching in co-transfected HEK293 cells (YFP and CFP fusions); FRET efficiency from photobleached regions of interest; the negative control's value used as cut-off. The note with it: partners not purified.

T1 sequence (P05067 18-770): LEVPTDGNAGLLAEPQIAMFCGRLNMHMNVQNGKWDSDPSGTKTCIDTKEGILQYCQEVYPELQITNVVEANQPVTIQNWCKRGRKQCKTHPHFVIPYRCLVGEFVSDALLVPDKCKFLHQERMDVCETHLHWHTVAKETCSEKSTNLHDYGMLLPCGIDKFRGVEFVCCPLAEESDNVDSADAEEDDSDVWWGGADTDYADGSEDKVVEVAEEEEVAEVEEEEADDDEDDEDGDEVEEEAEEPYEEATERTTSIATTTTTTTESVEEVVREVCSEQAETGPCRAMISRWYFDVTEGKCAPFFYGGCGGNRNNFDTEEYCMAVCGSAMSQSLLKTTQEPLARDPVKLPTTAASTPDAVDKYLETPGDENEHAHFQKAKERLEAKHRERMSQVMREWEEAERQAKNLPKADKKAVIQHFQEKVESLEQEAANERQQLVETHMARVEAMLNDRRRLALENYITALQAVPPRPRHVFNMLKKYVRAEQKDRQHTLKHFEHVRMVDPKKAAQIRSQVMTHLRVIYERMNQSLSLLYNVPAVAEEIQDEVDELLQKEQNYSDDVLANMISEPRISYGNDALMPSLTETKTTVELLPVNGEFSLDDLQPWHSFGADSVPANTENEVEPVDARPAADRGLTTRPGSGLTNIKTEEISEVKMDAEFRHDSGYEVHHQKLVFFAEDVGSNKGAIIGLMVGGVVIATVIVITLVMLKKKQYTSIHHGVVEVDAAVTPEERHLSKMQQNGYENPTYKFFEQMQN

B1: Sort 756-831-CFP (domain or fragment, human, UniProt Q99523-1 756-831, looked up)
chain: SVPIILAIVGLMLVTVVAGVLIVKKYVCGGRFLVHRYSVLQQHAEANGVDGVDALDTASHTNKSGYHDDSDEDLLE
notes: The forward primer adds a start ATG before the stretch; source: HEK293, transfected, in lysate or in living cells; not shown: CFP (vector pECFP-N1), C-terminal, kept
Molecule B1 had an FRET efficiency of 40%.

The values above are taken from PMC3660575, “The Intracellular Domain of Sortilin Interacts with Amyloid Precursor Protein and Regulates Its Lysosomal and Lipid Raft Trafficking” (PLoS ONE, 2013).
